What was measured:
[1] = test system: CC(=O)N[C@H]1[C@H]([C@H](O)[C@H](O)CO)O[C@@](O[C@H]2[C@@H](O)[C@@H](CO)O[C@@H](O[C@H]3[C@H](O)[C@@H](O)[C@H](Oc4ccc5c(C)cc(=O)oc5c4)O[C@@H]3CO)[C@@H]2O)(C(=O)O)C[C@@H]1O; test: α2-3-sialidase activity, Neu5Acα2-3LacβMU as substrate; assay type: biochemical, Pasteurella multocida; settings: other: apparent, MES pH 5.5, 37° C.
Procedure: (§1) Site-directed mutagenesis, expression and purification of PmST1 mutants. Site-directed mutagenesis was performed using the QuikChange multi-site-directed mutagenesis kit from Stratagene according to the manufacturer's protocol. The primers used were 5′-[…]-3′ (SEQ ID NO:35) for M144D; 5′-[…]a[…] -3′ (SEQ ID NO:36) for M144H; 5′-[…]-3′ (SEQ ID NO:37) for A35D; and 5′-[…]-3′ (SEQ ID NO:38) for A35H. The expression and purification of the mutants were performed as previously described for the WT PmST1 .
Kinetics of the α2-3-sialidase activity of PmST1 mutants. The reactions were performed in duplicate in a total volume of 10 μL at 37° C. for 60 min (M144D) or 15 min (M144H) in MES buffer (100 mM, pH 5.5) containing Neu5Acα2-3LacβMU (0.4, 1, 2, 4, 10, 20, 40 and 60 mM) and an enzyme (M144H, 1.36 mg mL^−1 or M144D, 1.05 mg mL^−1). Sample treatment after the reaction and analysis were carried out by HPLC similar to that described above for the α2-3-sialyltransferase assays.

[2] = test system: CC(=O)N[C@H]1[C@H]([C@H](O)[C@H](O)CO)O[C@](OP(=O)(O)OC[C@H]2O[C@@H](n3ccc(N)nc3=O)[C@H](O)[C@@H]2O)(C(=O)O)C[C@@H]1O; test: α2-3-sialyltransferase activity, LacβMU as acceptor; assay type: biochemical, Pasteurella multocida; settings: other: apparent, donor, LacβMU 1 mM, Tris-HCl pH 8.5, 37° C.
Procedure: as §1
(§2) Kinetics of the α2-3-sialyltransferase activity of PmST1 mutants by HPLC analysis. With LacβMU as the acceptor substrate, the reactions were performed in duplicate at 37° C. for 10 min (M144D) or 4 min (M144H) in a reaction mixture (10 μL) containing Tris-HCl (100 mM, pH 8.5), an enzyme (5 μg mL^−1), and different concentrations (0.2, 0.5, 1.0, 2.0, and 5.0 mM) of LacβMU with a fixed concentration (1 mM) of CMP-Neu5Ac or different concentrations (0.2, 0.5, 1.0, 2.0, 5.0, and 10.0 mM) of CMP-Neu5Ac with a fixed concentration (1 mM) of LacβMU. With Le^xβMU as the acceptor substrate, the reactions were carried out in duplicate at 37° C. for 9 min (M144D) or 10 min (M144H) in a reaction mixture (10 μL) containing CAPSO (100 mM, pH 9.5), an enzyme (M144D, 39 μg mL^−1 or M144H, 5 μg mL^−), and various concentrations of Le^xβMU (1.0, 5.0, 10.0, 15.0, 25.0, and 35.0 mM) with a fixed concentration (1 mM) of CMP-Neu5Ac or various concentrations (0.2, 0.5, 1.0, 2.0, 5.0, 10.0, 20.0, and 40.0 mM) of CMP-Neu5Ac with a fixed concentration (1 mM) of Le^xβMU. Reactions were stopped by adding 10 μL of pre-chilled ethanol. The mixtures were incubated on ice for 30 min and centrifuged at 13,000 rpm for 5 min. The supernatants were diluted with 25% acetonitrile and kept on ice until aliquots of 8 μL were injected and analyzed by the Shimadzu LC-6AD system equipped with a membrane on-line degasser, a temperature control unit, and a fluorescence detector (Shimadzu RF-10AXL). A reverse-phase Premier C18 column (250×4.6 mm i.d., 5 μm particle size, Shimadzu) protected with a C18 guard column cartridge was used. The mobile phase was 25% acetonitrile. The fluorophore (MU)-labeled compounds were detected by excitation at 325 nm and emission at 372 nm. The apparent kinetic parameters were obtained by fitting the experimental data (the average values of duplicate assay results) into the Michaelis-Menten equation using Grafit 5.0.

[3] = test system: Cc1cc(=O)oc2cc(O[C@@H]3O[C@H](CO)[C@@H](O[C@@H]4O[C@H](CO)[C@H](O)[C@H](O)[C@H]4O)[C@H](O)[C@H]3O)ccc12; test: as above; assay type: biochemical, Pasteurella multocida; settings: other: apparent, acceptor, CMP-Neu5Ac 1 mM, Tris-HCl pH 8.5, 37° C.
Procedure: as §1, §2

[4] = test system: CC(=O)N[C@H]1[C@H]([C@H](O)[C@H](O)CO)O[C@](OP(=O)(O)OC[C@H]2O[C@@H](n3ccc(N)nc3=O)[C@H](O)[C@@H]2O)(C(=O)O)C[C@@H]1O; test: α2-3-sialyltransferase activity, Le^xβMU as acceptor; assay type: biochemical, Pasteurella multocida; settings: other: apparent, donor, Le^xβMU 1 mM, CAPSO pH 9.5, 37° C.
Procedure: as §1, §2

[5] = test system: CC(=O)N[C@H]1[C@H](Oc2ccc3c(C)cc(=O)oc3c2)O[C@H](CO)[C@@H](O[C@@H]2O[C@H](CO)[C@H](O)[C@H](O)[C@H]2O)[C@@H]1O[C@@H]1O[C@@H](C)[C@@H](O)[C@@H](O)[C@@H]1O; test: as above; assay type: biochemical, Pasteurella multocida; settings: other: apparent, acceptor, CMP-Neu5Ac 1 mM, CAPSO pH 9.5, 37° C.
Procedure: as §1, §2

[6] = test system: CC(=O)N[C@H]1[C@H]([C@H](O)[C@H](O)CO)O[C@](OP(=O)(O)OC[C@H]2O[C@@H](n3ccc(N)nc3=O)[C@H](O)[C@@H]2O)(C(=O)O)C[C@@H]1O; test: CMP-Neu5Ac (donor) hydrolysis activity, capillary electrophoresis; assay type: biochemical, Pasteurella multocida; settings: other: apparent, Tris-HCl pH 8.5, 37° C., 15 min
Procedure: as §1
Kinetics of the donor hydrolysis activity of PmST1 and mutants by capillary electrophoresis analysis. […] The reactions were stopped by adding 10 μL of pre-chilled ethanol. The mixtures were incubated on ice for 30 min and centrifuged at 13,000 rpm for 5 min. The supernatants were diluted with borate buffer (25 mM, pH 9.5) and aliquotes of 5 μL each were injected to a Beckman Coulter P/ACE™ MDQ Capillary Electrophoresis system equipped with a capillary (60 cm×75 μm i.d.) and monitored at 254 nm. The apparent kinetic parameters were obtained by fitting the experimental data (the average values of duplicate assay results) into the Michaelis-Menten equation using Grafit 5.0.

[7] = test system: CC(=O)N[C@H]1[C@H]([C@H](O)[C@H](O)CO)O[C@](OP(=O)(O)OC[C@H]2O[C@@H](n3ccc(N)nc3=O)[C@H](O)[C@@H]2O)(C(=O)O)C[C@@H]1O; test: purified protein, by the assay type; settings: other: apparent, WT
[8] = test system: CC(=O)N[C@H]1[C@H](Oc2ccc3c(C)cc(=O)oc3c2)O[C@H](CO)[C@@H](O[C@@H]2O[C@H](CO)[C@H](O)[C@H](O)[C@H]2O)[C@@H]1O[C@@H]1O[C@@H](C)[C@@H](O)[C@@H](O)[C@@H]1O; test: purified protein, by the assay type; settings: other: apparent; acceptor; WT; 37.0 °C
[9] = Apparent kinetics of the α2-3-sialidase activity (HPLC, fluorescent sialoside substrate); assay type: biochemical; settings: substrate Neu5Acα2-3LacβMU
Procedure: All the sialidase and α2-3-sialyltransferase assays were performed in an HPLC system. Reactions were stopped by adding 10 μL of ethanol. […] The mobile phase was 25% acetonitrile.
Kinetics of the α2-3-sialidase activity of PmST1 mutants.

[10] = Thermal stability studies by HPLC; assay type: physicochemical; settings: incubating at 37° C. for up to 2 hours
Procedure: Stability studies by HPLC. Thermal stability studies were carried out by incubating wild-type PmST1 or E271F/R313Y mutant solution (20 μg mL^−1) at 37° C. Samples were withdrawn at various time intervals for enzyme activity assays.

[11] = donor hydrolysis, Tris-HCl pH 8.5, 37° C., 15 min

In the case of “Pasteurella multocida PmST1 mutant M144D of SEQ ID NO: 13 (M120D of Δ24PmST1, SEQ ID NO: 3) (Pasteurella multocida; M144D)”, the Km ([1]; M144D, 60 min) is reported as 20000 ± 2000 µM, the Km ([2]; M144D) is reported as 300 ± 50 µM and the Km ([3]; M144D) is reported as 12000 ± 1000 µM. The Km ([4]; M144D) was 2100 ± 100 µM, the Km ([5]; M144D) was 13000 ± 2000 µM and the Km ([6]; M144D) was 7300 ± 500 µM.

Work on “Pasteurella multocida PmST1 mutant M144H of SEQ ID NO: 13 (M120H of Δ24PmST1, SEQ ID NO: 5) (Pasteurella multocida; M144H)” yielded a Km ([1]; M144H, 15 min) of 1700 ± 300 µM, a Km ([2]; M144H) of 810 ± 60 µM and a Km ([3]; M144H) of 790 ± 40 µM. It also gave a Km ([4]; M144H) of 400 ± 50 µM, a Km ([5]; M144H) of 8100 ± 900 µM and a Km ([6]; M144H) of 13000 ± 3000 µM.

Work on “Pasteurella multocida α2-3-sialyltransferase 1 (PmST1), wild type (WT), SEQ ID NO: 13 (Pasteurella multocida)” yielded a Km [7, 11] of 1500 ± 200 µM, a kcat [7, 11] of 27 ± 1 s⁻¹ and a kcat/Km [7, 11] of 18000 M⁻¹ s⁻¹. For the same molecule, the Km ([7]; donor, with Le^xβMU, 37.0 °C) was 390 ± 30 µM, the kcat ([7]; donor, with Le^xβMU, 37.0 °C) was 0.55 ± 0.01 s⁻¹ and the Km [8] was 17000 ± 2000 µM. For the same molecule, the kcat [8] was 6.7 ± 0.3 s⁻¹.

B1: E271F/R313Y (protein, listed as Pasteurella multocida)
chain: MKNRRLNFKLFFLIIFSLFSTLSWSKTITLYLDPASLPALNQLMDFTQNNEDKTHPRIFGLSRFKIPDNIITQYQNIHFVELKDNRPTEALFTILDQYPGNIELNIHLNIAHSVQLIRPILAYRFKHLDRVSIQQLNLYDDGSMEYVDLEKEENKDISAEIKQAEKQLSHYLLTGKIKFDNPTIARYVWQSAFPVKYHFLSTDYFEKAEFLQPLKEYLAENYQKMDWTAYQQLTPEQQAFYLTLVGFNDEVKQSLEVQQAKFIFTGTTTWFGNTDVREYYAQQQLNLLNHFTQAEGDLFIGDHYKIYFKGHPYGGEINDYILNNAKNITNIPANISFEVLMMTGLLPDKVGGVASSLYFSLPKEKISHIIFTSNKQVKSKEDALNNPYVKVMRRLGIIDESQVIFWDSLKQL
modifications: PmST1 wild-type glycosyltransferase family 80 (GT80), GT80 sialyltransferase, Pm0188Ph
In the case of B1, the “decrease in sialidase kcat (turnover number) compared to wild-type PmST1” value [9] is reported as 277 fold, the “decrease of α2-3-sialidase activity (catalytic efficiency kcat/Km) compared to wild-type PmST1” value [9] is reported as 6,333 fold and the “increase in sialidase Km value compared to wild-type PmST1” value [9] is reported as 22.5 fold. The “thermal stability of α2-3-sialyltransferase activity (FIG. 3, in words)” value [10] was “did not decrease their activities significantly”.

From patent US9255257B2, “PmST1 mutants for chemoenzymatic synthesis of sialyl lewis X compounds” (THE REGENTS OF THE UNIVERSITY OF CALIFORNIA, priority 2011, dated 2016)
